This is an account of results in patent publication US7442378B2, “Attenuated circovirus” (The University of Melbourne, priority 2001, dated 2008).

“Also recorded” adds a separate entry of the source.

For data set [1] the following is noted: known PTPases, comparison values; cited from earlier work.
The subject of a further data set is CAV VP2-GST PTPase. The data set can be described thus: Sodium orthovanadate inhibition of PTPase activity. Type of data set: biochemical, Chicken anaemia virus. As to the method: Stock 1 mM […] was made in distilled water and adjusted to pH 10 with sulphuric acid. Once dissolved, stock […] was added to AB and TB buffer at a ratio of 1:1:1 and adjusted to pH 7. Inhibition studies were conducted with 0.1 mM, 0.01 mM and 0.001 mM of sodium orthovanadate. All other reaction conditions were as described above. Assays were with 10 nmol substrate and 9 μg CAV VP2-GST and were in triplicate for each concentration of inhibitor.

For data set [2], the system named is T1, phosphopeptide substrate H-Glu-Asn-Asp-Tyr(PO3H2)-Ile-Asn-Ala-Ser-Leu-OH.
T1 sequence: ENDYINASL

The target in data set [3] is T2, phosphopeptide substrate H-Glu-Asn-Asp-Tyr(PO3H2)-Ile-Asn-Ala-Ser-Leu-OH.
T2 chain: ENDYINASL

Data set [4] relates to peptide substrate ENDY(Pi)INASL. Type of data set: biochemical.
Data set [5] has the same test system. The data set can be described thus: Enzyme pH optimum of CAV VP2-GST PTPase. It counts as biochemical. The method, then:
Triplicate reactions were set up at pH 4, pH 5, pH 6, pH 7, pH 8 and pH 9. Assays were with 10 nmol substrate and 9 μg CAV VP2-GST and all other reaction conditions were as described above. Prior to addition of the malachite green reagent the pH was neutralised to pH 7 with either sulphuric acid or sodium hydroxide.

“PTP1B: low Mr PTPase cited for comparison [reference compound]”: the Vmax in data set [1] is 20 000 U/mg min.
As to `[Na+].[Na+].[Na+].[O]=[V]([O-])([O-])[O-]` [sodium orthovanadate], in the data set with CAV VP2-GST PTPase, the “Inhibition of VP2-GST PTPase activity” value is listed as “specifically inhibited; also recorded: completely inhibited” and the “Orthovanadate concentration giving maximal inhibition of CAV VP2 activity (as low as)” value stood at 0.001 mM.
In the case of TLMV ORF2-GST fusion protein, in data set [2], the “PTPase activity (steady state)” value is “The steady state activity was equivalent to that demonstrated for CAV VP2”.

B1: CD45: high Mr PTPase from human spleen cited for comparison (protein, UniProt P08575 26-1306, looked up)
Receptor-type …: QSPTPSPTGLTTAKMPSVPLSSDPLPTHTTAFSPASTFERENDFSETTTSLSPDNTSTQVSPDSLDNASAFNTTGVSSVQTPHLPTHADSQTPSAGTDTQTFSGSAANAKLNPTPGSNAISDVPGERSTASTFPTDPVSPLTTTLSLAHHSSAALPARTSNTTITANTSDAYLNASETTTLSPSGSAVISTTTIATTPSKPTCDEKYANITVDYLYNKETKLFTAKLNVNENVECGNNTCTNNEVHNLTECKNASVSISHNSCTAPDKTLILDVPPGVEKFQLHDCTQVEKADTTICLKWKNIETFTCDTQNITYRFQCGNMIFDNKEIKLENLEPEHEYKCDSEILYNNHKFTNASKIIKTDFGSPGEPQIIFCRSEAAHQGVITWNPPQRSFHNFTLCYIKETEKDCLNLDKNLIKYDLQNLKPYTKYVLSLHAYIIAKVQRNGSAAMCHFTTKSAPPSQVWNMTVSMTSDNSMHVKCRPPRDRNGPHERYHLEVEAGNTLVRNESHKNCDFRVKDLQYSTDYTFKAYFHNGDYPGEPFILHHSTSYNSKALIAFLAFLIIVTSIALLVVLYKIYDLHKKRSCNLDEQQELVERDDEKQLMNVEPIHADILLETYKRKIADEGRLFLAEFQSIPRVFSKFPIKEARKPFNQNKNRYVDILPYDYNRVELSEINGDAGSNYINASYIDGFKEPRKYIAAQGPRDETVDDFWRMIWEQKATVIVMVTRCEEGNRNKCAEYWPSMEEGTRAFGDVVVKINQHKRCPDYIIQKLNIVNKKEKATGREVTHIQFTSWPDHGVPEDPHLLLKLRRRVNAFSNFFSGPIVVHCSAGVGRTGTYIGIDAMLEGLEAENKVDVYGYVVKLRRQRCLMVQVEAQYILIHQALVEYNQFGETEVNLSELHPYLHNMKKRDPPSEPSPLEAEFQRLPSYRSWRTQHIGNQEENKSKNRNSNVIPYDYNRVPLKHELEMSKESEHDSDESSDDDSDSEEPSKYINASFIMSYWKPEVMIAAQGPLKETIGDFWQMIFQRKVKVIVMLTELKHGDQEICAQYWGEGKQTYGDIEVDLKDTDKSSTYTLRVFELRHSKRKDSRTVYQYQYTNWSVEQLPAEPKELISMIQVVKQKLPQKNSSEGNKHHKSTPLLIHCRDGSQQTGIFCALLNLLESAETEEVVDIFQVVKALRKARPGMVSTFEQYQFLYDVIASTYPAQNGQVKKNNHQEDKIEFDNEVDKVKQDANCVNPLGAPEKLPEAKEQAEGSEPTSGTEGPEHSVNGPASPALNQGS
Turning to B1, the Vmax in data set [1] is 1 000 U/mg min.

B2: CAV VP2-GST fusion protein (protein)
chain: MHGNGGQPAAGGSESALSREGQPGPSGAAQGQVISNERSPRRYSTRTINGVQATNKFTAVGNPSLQRDPDWYRWNYSHSIAVWLRECSRSHAKICNCGQFRKHWFQECAGLEDRSTQASLEEAILRPLRVQGKRAKRKLDYHYSQPTPNRKKVYKTVRWQDELADREADFTPSEEDGGTTSSDFDEDINFDIGGDSGIVDELLGRPFTTPAPVRIV
Take B2: in data set [3], the “Km (PTPase assay, malachite green, Lineweaver-Burk plot)” value is “Km to be 16.95 µM”; the “Vmax (PTPase assay, malachite green, Lineweaver-Burk plot)” value was “Vmax was estimated to be 14 280 U/mg min”; the Vo with 0.001 mM orthovanadate, 10 nmol substrate was found to be 0.002; the Vo with 0.01 mM orthovanadate, 10 nmol substrate was determined as 0. Also, in data set [3], the Vo with 0.1 mM orthovanadate, 10 nmol substrate was determined as 0; the Vo without orthovanadate, 10 nmol substrate was determined as 5.61; the mean Vo (nmol) at pH 4, 10 nmol substrate is 1.75 nmol; the mean Vo (nmol) at pH 5, 10 nmol substrate worked out at 1.47 nmol. In data set [3], this molecule yielded a mean Vo (nmol) at pH 6, 10 nmol substrate of 5.64 nmol; a mean Vo (nmol) at pH 7, 10 nmol substrate of 5.61 nmol; a mean Vo (nmol) at pH 8, 10 nmol substrate of 1.83 nmol; a mean Vo (nmol) at pH 9, 10 nmol substrate of 0 nmol.

B3: VP2-GST: CAV viral protein 2 produced as fusion with glutathione S-transferase in E. coli (protein)
chain: MHGNGGQPAAGGSESALSREGQPGPSGAAQGQVISNERSPRRYSTRTINGVQATNKFTAVGNPSLQRDPDWYRWNYSHSIAVWLRECSRSHAKICNCGQFRKHWFQECAGLEDRSTQASLEEAILRPLRVQGKRAKRKLDYHYSQPTPNRKKVYKTVRWQDELADREADFTPSEEDGGTTSSDFDEDINFDIGGDSGIVDELLGRPFTTPAPVRIV
modifications: left off: a dimerising Fc or GST
notes: CAV viral protein 2 produced as fusion with glutathione S-transferase in E. coli
In data set [4] (linear regression of double reciprocal plot), B3 had a 1/Vmax of 0.060. Also, the Vmax in data set [4] (substrate ENDY(Pi)INASL, Lineweaver-Burk plot, Vo at 1 min) is listed as 14 280 U/mg min. The “mean Vo, PTPase activity” value in data set [5] (pH 4, S 10 nmol) is reported as 1.746 nmol; in data set [5] (pH 5, S 10 nmol) it was 1.474 nmol; in data set [5] (pH 6, S 10 nmol), 5.636 nmol; in data set [5] (pH 7, S 10 nmol), 5.612 nmol; in data set [5] (pH 8, S 10 nmol), 1.829 nmol; in data set [5] (pH 9, S 10 nmol), 0.000 nmol. For the same molecule, in data set [5] (reactions at pH 4 to pH 9, listed as CAV VP2), the “pH of optimal PTPase activity” value is 6-7.
